Measurements published in patent publication US20220062372A1, “METHODS FOR TREATING DISEASE AND REDUCING DRUG-INDUCED LIVER INJURY IN PATIENT POPULATIONS” (Ten Peaks LLC, priority 2020, published 2022).
Where no end group is shown, it is not given here.

Assays:
[1] = molecular target: T1, HLA-B*39:01 and β2-microglobulin (Homo sapiens, UniProt P01889, A182T/A93T/A95T/C349S/D138N/D201E/E176V/E187T/E204Q/K202T/Q94N/R155S/R180L/S121R/Y140F/Y91C); test: Refolding of HLA complexes with synthetic peptides, G200 superdex chromatography (OD280); type: binding; conditions: for peptide binding and proper refolding of HLA-B*39:01 (peak in chromatogram): FIG. 2A-2D, FIG. 3; for binding to HLA-B*39:01 (results of the studies taken together): overall conclusion of Example 2, Tables 6 and 7 and FIGS. 2-4
T1 construct: made in house; host or cells: E. coli
Procedure: (§1) Refolding, characterization and purification of HLA complexes was performed as described (PMID: 12220628). Briefly, HLA-B*39:01 and β2-microglobulin were expressed in E. coli. Inclusion bodies were isolated, denatured in 8 M Urea and mixed with synthetic peptides derived from infliximab (Genscript) at a final concentration of 0.2 mg per ml protein, 6 M Urea, 20 mM Tris pH 8.0, 1 mM GSH, 10 mM GSSH for 24 hours, then dialyzed against 10 mM Tris pH 8.0 for 3 days. Samples concentrated to reduce the volume 10 fold, then loaded on a G200 superdex column calibrated with standards (http://www.bio-rad.com/webroot/web/pdf/1sr/literature/MSLIT-102E.pdf) in 10 mM Tris, 150 mM NaCl, at 0.75 ml per minute. OD280 was recorded for chromatographic analysis.
(§2) Results of the study are provided in FIGS. 2-4 and in Tables 6 and 7. In Tables 6 and 7, the IC50 (nM) for each peptide binding to HLA-B*39:01, HLA-B*05:01, HLA-B*35:01, or HLA-B*57:01 are shown in nM. […] In each of FIG. 2A-2D, the dotted line arrow points to the peak (or lack of a peak, for FIG. 2D) indicating peptide binding and proper refolding. […] The dotted line arrow points to the peak (or lack of a peak) indicating peptide binding and proper refolding. […] FIGS. 5A and 5B show an exemplary crystal structure of infliximab.

[2] = background description of the marketed drug; cited from earlier work
other HLAs = test: Peptide binding to other HLAs (overall conclusion of Example 2); set-up: species or system human
Procedure: A study was conducted to identify interactions between peptides present on the infliximab antibody and HLA-B*39:01. Peptides corresponding to heavy and light chain sequences of infliximab (chain H and L in PDB code 4G3Y) were predicted to bind class I HLA molecules based on the Stabilized matrix method (SMM) implemented in Immune Epitope Database and Analysis Resource (IEDB). Peptides predicted to bind with estimated Kd values less than 0.5 μM were considered candidate binders for: HLA-B*39:01, HLA-B*15:01, HLA-B*35:01, and HLA-B*57:01.
as §1, §2

[3] = HLA analysis of infliximab-DILI cases vs. matched controls and reference populations; type: in vivo, human; conditions: for OR vs. Ref 2 / OR vs. Ref 1 / OR vs. Control / OR: DILI after infliximab; for OR vs. Control: 25 Caucasian cases vs 60 controls; for OR: cases vs controls
Procedure: Samples from 25 Caucasians, 3 Africans, and 3 outliers subjects that had been treated with infliximab and had experienced DILI were obtained. These are referred to as “cases” here. These samples were compared to a set of 60 matched Caucasian and 6 matched African controls. […] The controls were matched for age, sex, ethnicity, and BMI where possible. Statistical analyses were performed to identify from these cases HLA alleles that are risk factors for the development of DILI following infliximab exposure. Significant alleles were determined using Fisher's Exact Test (FET) (p<0.05).
As a secondary comparison, the HLA profiles of the 25 Caucasian cases were compared to reference populations available at www.allelefrequencies.net. For calculating population presence rates, reference list entries were found by searching for “Caucasoid” ethnic origin subjects of gold-standard studies involving ≥100 subjects for alleles of interest on allelefrequencies.net. Sample sizes for the references represent the reported number of subjects directly typed for a given locus (i.e. USA NMDP European Caucasian reports 1,242,890 subjects typed for HLA-B and DRB1, but only 395,676 subjects typed for HLA-C; see Table 3).
In order to test for significant differences between the 31 Infliximab-DILI cases and the reference populations using Fisher's Exact Test (FET), counts of individuals carrying at least one copy of the allele in question were calculated one of two ways. If the population presence rate was available, the number of individuals was estimated by rounding the product of the population presence rate and the sample size for that HLA locus in that study. If no population presence rate was available, this number was estimated using the allele frequency rate and assuming Hardy-Weinberg equilibrium (HWE). That is, if the allele frequency is p, the number of individuals with the allele in question were calculated as [p^2+2*p*(1−p)]*Nsamples, where p^2+2*p*(1−p) represents the percentage of carriers if HWE is assumed, and N samples is the reference sample size for that locus.
The data sets individually analyzed were: Caucasian typed and/or Caucasian imputed; African typed and/or African imputed; and All Ethnicities typed and/or All Ethnicities imputed. “Typed only” means that only subjects with directly typed HLA alleles were considered in the indicated analysis. “Imputed only” means that only the imputed alleles (i.e., the subject's HLA profile was determined using known proxies for HLA subtypes in their genetic sequence) for each subject were used in the indicated analysis. “Imputed+Typed” means that all subjects were considered; here, directly typed HLA alleles were used if available, otherwise, imputed alleles were used.

ACEVTHQGL [SEQ ID NO: 12]
peptide binding and proper refolding of HLA-B*39:01 (peak in chromatogram) [1]: lack of binding | binding to HLA-B*39:01 (results of the studies taken together) [1]: does not bind

ACTEMRA: interleukin-6 (IL-6) receptor antagonist
hepatic adverse reactions reported in patients [2]: Serious cases of hepatic injury have been observed

CQQSHSWPF [SEQ ID NO: 9, CQQSHSWPF]
binding to HLA-B*39:01 (results of the studies taken together) [1]: bind to HLA-B*39:01 at significant levels | binding to other HLAs (results of the studies taken together) (other HLAs): not to other HLAs

Certolizumab: anti-TNF antibody used for the treatment of autoimmune diseases
hepatic adverse reactions reported in patients [2]: Elevated liver enzymes and hepatitis have been reported

ENTYVIO: integrin receptor antagonist for ulcerative colitis or Crohn's disease
hepatic adverse reactions reported in patients [2]: reports of elevations of transaminase and/or bilirubin

GAZYVA: CD20-directed cytolytic antibody
hepatic adverse reactions reported in patients [2]: Hepatic enzyme elevations have occurred in CLL patients

Guselkumab: IL-23 blocker
hepatic adverse reactions reported in patients [2]: Elevated liver enzymes have been reported

Infliximab: mouse-human chimeric monoclonal antibody that binds to human tumor necrosis factor (TNF)
OR vs. Ref 2 ([3]; B*39:01, 25 Caucasian cases vs England Northwest): 13.72 | OR vs. Ref 1 ([3]; B*39:01, 25 Caucasian cases vs USA NMDP European Caucasian): 8.33 | OR vs. Ref 2 ([3]; C*12:03, 25 Caucasian cases vs UK Pop 3): 4.56 | OR vs. Ref 1 ([3]; C*12:03, 25 Caucasian cases vs USA NMDP European Caucasian): 3.02 | OR vs. Control ([3]; DQA1*3:03): 18.82 | OR vs. Ref 2 ([3]; DQA1*3:03, 25 Caucasian cases vs Netherlands pop 2): 0.87 | OR vs. Ref 1 ([3]; DQA1*3:03, 25 Caucasian cases vs USA Caucasian Bethesda): 0.92 | OR vs. Control ([3]; DQB1*02:01): 4.93 | OR vs. Ref 2 ([3]; DQB1*02:01, 25 Caucasian cases vs USA Philadelphia Caucasian): 3.57 | OR vs. Ref 1 ([3]; DQB1*02:01, 25 Caucasian cases vs USA San Antonio Caucasian): 2.54 | OR vs. Control ([3]; DRB1*03:01): 4.24 | OR vs. Ref 1 ([3]; DRB1*03:01, 25 Caucasian cases vs USA NMDP European Caucasian): 2.25 | OR vs. Ref 2 ([3]; DRB1*03:01, 25 Caucasian cases vs USA Philadelphia Caucasian): 3.57 | OR ([3]; HLA-A*02:01, African imputed + typed): 91.00 | OR ([3]; HLA-B*39:01, Caucasian imputed + typed): 25.33 | OR ([3]; HLA-C*07:01, All ethnicities imputed + typed): 2.77 | OR ([3]; HLA-C*12:03, Caucasian imputed + typed): 5.85 | OR ([3]; HLA-DPB1*04:02, African imputed + typed): 25.67 | OR ([3]; HLA-DQA1*03:01, All ethnicities imputed + typed): 0.28 | OR ([3]; HLA-DQA1*03:03, All ethnicities imputed + typed): 16.33 | OR ([3]; HLA-DQB1*02:01, All ethnicities imputed + typed): 5.21 | OR ([3]; HLA-DRB*03:01, All ethnicities imputed + typed): 4.50 | risk of DILI following infliximab administration in subjects with HLA-B*39:01 ([3]; in words): associated with a higher risk of DILI | hepatic adverse reactions reported in patients [2]: known to cause hepatotoxicity, and even severe hepatic reactions that can be fatal or necessitate a liver transplant

LQSSGLYSL [SEQ ID NO: 10, LQSSGLYSL]
binding to HLA-B*39:01 (results of the studies taken together) [1]: bind to HLA-B*39:01 at significant levels | binding to other HLAs (results of the studies taken together) (other HLAs): not to other HLAs

STSGGTAAL [SEQ ID NO: 11, infliximab heavy chain peptide]
binding to HLA-B*39:01 (results of the studies taken together) [1]: bind to HLA-B*39:01 at significant levels | binding to other HLAs (results of the studies taken together) (other HLAs): not to other HLAs

STYSLSSTL [SEQ ID NO: 7, infliximab light chain peptide]
binding to HLA-B*39:01 (results of the studies taken together) [1]: bind to HLA-B*39:01 at significant levels | binding to other HLAs (results of the studies taken together) (other HLAs): not to other HLAs

THQGLSSPV [SEQ ID NO: 1, THQGLSSPV]
peptide binding and proper refolding of HLA-B*39:01 (peak in chromatogram) [1]: binding | binding to HLA-B*39:01 (results of the studies taken together) [1]: bind to HLA-B*39:01 at significant levels | binding to other HLAs (results of the studies taken together) (other HLAs): not to other HLAs

TKGPSVFPL [SEQ ID NO: 2, TKGPSVFPL]
peptide binding and proper refolding of HLA-B*39:01 (peak in chromatogram) [1]: binding | binding to HLA-B*39:01 (results of the studies taken together) [1]: bind to HLA-B*39:01 at significant levels | binding to other HLAs (results of the studies taken together) (other HLAs): not to other HLAs

TQSPAILSV [SEQ ID NO: 6, TQSPAILSV]
binding to HLA-B*39:01 (results of the studies taken together) [1]: bind to HLA-B*39:01 at significant levels | binding to other HLAs (results of the studies taken together) (other HLAs): not to other HLAs

TYSABRI: integrin receptor antagonist indicated for multiple sclerosis and Crohn's disease
hepatic adverse reactions reported in patients [2]: Significant liver injury, including liver failure requiring transplant, has occurred in patients

VQWKVDNAL [SEQ ID NO: 8, VQWKVDNAL]
binding to HLA-B*39:01 (results of the studies taken together) [1]: bind to HLA-B*39:01 at significant levels | binding to other HLAs (results of the studies taken together) (other HLAs): not to other HLAs

YSLSSTLTL [SEQ ID NO: 5, YSLSSTLTL]
binding to HLA-B*39:01 (results of the studies taken together) [1]: bind to HLA-B*39:01 at significant levels | binding to other HLAs (results of the studies taken together) (other HLAs): not to other HLAs

ZINBRYTA: CD25 (IL-2 receptor)-specific antibody used to treat multiple sclerosis
hepatic adverse reactions reported in patients [2]: can cause severe liver injury, including autoimmune hepatitis and liver failure

golimumab: TNF blocker
hepatic adverse reactions reported in patients [2]: reports of severe hepatic reactions including acute liver failure
